Experimental data published in paper PMC10661027, “Tuning Plant Promoters Using a Simple Split Luciferase Method to Assess Transcription Factor-DNA Interactions”.

Columns and labels:
AtTGA1:HiBiT [1] = target: T1, AtTGA1:HiBiT (Arabidopsis thaliana, UniProt Q39237 1-368); test: qTFD (HiBiT luminescence microplate, relative to rnd); strong rQ; qTFD: 25 mM Tris-HCl pH 8.0, 100 mM KCl, 2 mM DTT, 1 mM EDTA, 0.1% BSA, 500 ng poly(dI-dC), 5% glycerol, 0.05% IGEPAL CA630, 1.5-50 nM protein, 1-3 h, room temperature; EMSA as in cited earlier work; conditions: protein: recombinant; tags: C-terminal HiBiT (VSGWRLFKKIS); pH9GW vector, Ni-NTA purified; chain copies: 2; label: none; blunt
T1 sequence: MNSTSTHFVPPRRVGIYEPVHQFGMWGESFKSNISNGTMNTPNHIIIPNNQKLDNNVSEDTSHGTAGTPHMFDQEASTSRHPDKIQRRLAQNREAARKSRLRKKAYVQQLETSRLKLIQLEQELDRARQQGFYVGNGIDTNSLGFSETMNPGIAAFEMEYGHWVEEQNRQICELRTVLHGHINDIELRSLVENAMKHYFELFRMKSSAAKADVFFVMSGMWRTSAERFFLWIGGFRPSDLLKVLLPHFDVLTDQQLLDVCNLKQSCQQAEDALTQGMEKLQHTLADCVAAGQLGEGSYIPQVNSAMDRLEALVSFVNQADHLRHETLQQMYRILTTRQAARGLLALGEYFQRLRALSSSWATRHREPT

AtTGA1:HiBiT [2] = target: T1, AtTGA1:HiBiT; test: qTFD (HiBiT luminescence microplate, relative to rnd); qTFD: 25 mM Tris-HCl pH 8.0, 100 mM KCl, 2 mM DTT, 1 mM EDTA, 0.1% BSA, 500 ng poly(dI-dC), 5% glycerol, 0.05% IGEPAL CA630, 1.5-50 nM protein, 1-3 h, room temperature; EMSA as in cited earlier work; conditions: protein: recombinant; tags: C-terminal HiBiT (VSGWRLFKKIS); pH9GW vector, Ni-NTA purified; chain copies: 2; label: none; blunt
AtTGA1:HiBiT [3] = target: T1, AtTGA1:HiBiT; test: EMSA; 1.5-15 nM protein; reduced by unlabelled competitor; qTFD: 25 mM Tris-HCl pH 8.0, 100 mM KCl, 2 mM DTT, 1 mM EDTA, 0.1% BSA, 500 ng poly(dI-dC), 5% glycerol, 0.05% IGEPAL CA630, 1.5-50 nM protein, 1-3 h, room temperature; EMSA as in cited earlier work; conditions: protein: recombinant; tags: C-terminal HiBiT (VSGWRLFKKIS); pH9GW vector, Ni-NTA purified; chain copies: 2; label: Cy5 (primers); blunt

B1: TFBS_02 (dsDNA)
DNA 1: TAGCGAAGTACGATCCCGGACCGCTACATTCCAAATAGTCTGACGTAAGCAATGACAAAACTCACCTACATGGCCATCACGCAGTA
DNA 2: TACTGCGTGATGGCCATGTAGGTGAGTTTTGTCATTGCTTACGTCAGACTATTTGGAATGTAGCGGTCCGGGATCGTACTTCGCTA
AtTGA1:HiBiT [1]
  binding result: binds

B2: CaMV35s as1 (dsDNA)
DNA 1: ATGAAGACGCTGGGTTTACATGGGAATGGCTGACGTAAGGGATGACGCACATGCTTCTGTTCTAACAGGCTAGGATATAA
DNA 2: TTATATCCTAGCCTGTTAGAACAGAAGCATGTGCGTCATCCCTTACGTCAGCCATTCCCATGTAAACCCAGCGTCTTCAT
AtTGA1:HiBiT [2]
  binding result: binds

B3: CaMV35s as1 80 bp Cy5 EMSA probe (dsDNA)
DNA 1: ATGAAGACGCTGGGTTTACATGGGAATGGCTGACGTAAGGGATGACGCACATGCTTCTGTTCTAACAGGCTAGGATATAA
DNA 2: TTATATCCTAGCCTGTTAGAACAGAAGCATGTGCGTCATCCCTTACGTCAGCCATTCCCATGTAAACCCAGCGTCTTCAT
AtTGA1:HiBiT [3]
  binding result: binds
